System: Escherichia coli TOP10
Assay: shrunken log2 fold change of peptide-encoding DNA abundance (4.5 h post-induction vs induction); higher = less antimicrobial activity (less host growth inhibition)
Settings: time post-induction: 4.5 h; library: site-saturation at positions 5, 18, 19, 20
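Note: peptides expressed intracellularly from a pBAD plasmid library in pooled LB shake-flask culture, induced with 0.3% L-arabinose, DNA abundance read by NGS, three biological replicates, DESeq2 with apeglm shrinkage.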

RRIRYRPPRLPRPRPRPGIIPRP
shrunken log2 fold change: -0.0361

RRIRYRPPRLPRPRPRPGIKPRP
shrunken log2 fold change: -0.311

RRIRYRPPRLPRPRPRPGIPPRP
shrunken log2 fold change: -0.193

RRIRYRPPRLPRPRPRPGKCPRP
shrunken log2 fold change: -0.264

RRIRYRPPRLPRPRPRPGKIPRP
shrunken log2 fold change: -0.524

RRIRYRPPRLPRPRPRPGKNPRP
shrunken log2 fold change: -0.13

RRIRYRPPRLPRPRPRPGMCPRP
shrunken log2 fold change: 0.0154

RRIRYRPPRLPRPRPRPGMGPRP
shrunken log2 fold change: -0.195

RRIRYRPPRLPRPRPRPGNNPRP
shrunken log2 fold change: -0.359

RRIRYRPPRLPRPRPRPGNTPRP
shrunken log2 fold change: -1.18

RRIRYRPPRLPRPRPRPGPWPRP
shrunken log2 fold change: 0.18

RRIRYRPPRLPRPRPRPGQLPRP
shrunken log2 fold change: -0.284

RRIRYRPPRLPRPRPRPGRKPRP
shrunken log2 fold change: -0.155

RRIRYRPPRLPRPRPRPGRLPRP
shrunken log2 fold change: -0.0505

RRIRYRPPRLPRPRPRPGRMPRP
shrunken log2 fold change: -0.642

RRIRYRPPRLPRPRPRPGRTPRP
shrunken log2 fold change: -0.121

RRIRYRPPRLPRPRPRPGSEPRP
shrunken log2 fold change: -0.202

RRIRYRPPRLPRPRPRPGSWPRP
shrunken log2 fold change: 0.0212

RRIRYRPPRLPRPRPRPGTHPRP
shrunken log2 fold change: -0.678

RRIRYRPPRLPRPRPRPGWDPRP
shrunken log2 fold change: -0.0163

RRIRYRPPRLPRPRPRPGWGPRP
shrunken log2 fold change: -0.13

RRIRYRPPRLPRPRPRPGWKPRP
shrunken log2 fold change: 0.00711

RRIRYRPPRLPRPRPRPHCTPRP
shrunken log2 fold change: -0.372

RRIRYRPPRLPRPRPRPHCVPRP
shrunken log2 fold change: -0.0324

RRIRYRPPRLPRPRPRPHDRPRP
shrunken log2 fold change: 0.0039

RRIRYRPPRLPRPRPRPHFLPRP
shrunken log2 fold change: -0.13

RRIRYRPPRLPRPRPRPHFNPRP
shrunken log2 fold change: -1.23

RRIRYRPPRLPRPRPRPHFSPRP
shrunken log2 fold change: -0.256

RRIRYRPPRLPRPRPRPHGAPRP
shrunken log2 fold change: -0.0794

RRIRYRPPRLPRPRPRPHGSPRP
shrunken log2 fold change: -0.00822

RRIRYRPPRLPRPRPRPHHSPRP
shrunken log2 fold change: -1.27

RRIRYRPPRLPRPRPRPHLPPRP
shrunken log2 fold change: -0.542

RRIRYRPPRLPRPRPRPHMSPRP
shrunken log2 fold change: -0.452

RRIRYRPPRLPRPRPRPHMYPRP
shrunken log2 fold change: -0.327

RRIRYRPPRLPRPRPRPHPMPRP
shrunken log2 fold change: -0.191

RRIRYRPPRLPRPRPRPHPTPRP
shrunken log2 fold change: -0.289

RRIRYRPPRLPRPRPRPHQHPRP
shrunken log2 fold change: 0.0599

RRIRYRPPRLPRPRPRPHQPPRP
shrunken log2 fold change: -0.748

RRIRYRPPRLPRPRPRPHRKPRP
shrunken log2 fold change: -0.501

RRIRYRPPRLPRPRPRPHRLPRP
shrunken log2 fold change: -0.0157

RRIRYRPPRLPRPRPRPHSEPRP
shrunken log2 fold change: -0.0168

RRIRYRPPRLPRPRPRPHTIPRP
shrunken log2 fold change: -0.852

RRIRYRPPRLPRPRPRPHTSPRP
shrunken log2 fold change: -1.04

RRIRYRPPRLPRPRPRPHVLPRP
shrunken log2 fold change: -0.0311

RRIRYRPPRLPRPRPRPICCPRP
shrunken log2 fold change: -0.137

RRIRYRPPRLPRPRPRPIDDPRP
shrunken log2 fold change: -1.19

RRIRYRPPRLPRPRPRPIDLPRP
shrunken log2 fold change: -0.0513

RRIRYRPPRLPRPRPRPIEMPRP
shrunken log2 fold change: 0.0294

RRIRYRPPRLPRPRPRPIFCPRP
shrunken log2 fold change: -0.201

RRIRYRPPRLPRPRPRPIGLPRP
shrunken log2 fold change: -0.0167

RRIRYRPPRLPRPRPRPIIMPRP
shrunken log2 fold change: -0.0214

RRIRYRPPRLPRPRPRPIIPPRP
shrunken log2 fold change: -0.825

RRIRYRPPRLPRPRPRPIIQPRP
shrunken log2 fold change: -0.0128

RRIRYRPPRLPRPRPRPIKIPRP
shrunken log2 fold change: -0.105

RRIRYRPPRLPRPRPRPILFPRP
shrunken log2 fold change: -0.945

RRIRYRPPRLPRPRPRPILHPRP
shrunken log2 fold change: -0.141

RRIRYRPPRLPRPRPRPILPPRP
shrunken log2 fold change: 0.00451

RRIRYRPPRLPRPRPRPIMQPRP
shrunken log2 fold change: -0.107

RRIRYRPPRLPRPRPRPINPPRP
shrunken log2 fold change: -0.269

RRIRYRPPRLPRPRPRPIQGPRP
shrunken log2 fold change: -0.0804

RRIRYRPPRLPRPRPRPIRLPRP
shrunken log2 fold change: 0.0224

RRIRYRPPRLPRPRPRPISMPRP
shrunken log2 fold change: 0.0342

RRIRYRPPRLPRPRPRPISQPRP
shrunken log2 fold change: -0.299

RRIRYRPPRLPRPRPRPISTPRP
shrunken log2 fold change: -0.0632

RRIRYRPPRLPRPRPRPITIPRP
shrunken log2 fold change: -0.149

RRIRYRPPRLPRPRPRPIVEPRP
shrunken log2 fold change: 0.00721

RRIRYRPPRLPRPRPRPIVRPRP
shrunken log2 fold change: -0.0319

RRIRYRPPRLPRPRPRPIWPPRP
shrunken log2 fold change: -0.00922

RRIRYRPPRLPRPRPRPIWQPRP
shrunken log2 fold change: -0.105

RRIRYRPPRLPRPRPRPKCKPRP
shrunken log2 fold change: -0.161

RRIRYRPPRLPRPRPRPKDSPRP
shrunken log2 fold change: -0.0869

RRIRYRPPRLPRPRPRPKEYPRP
shrunken log2 fold change: 0.171

RRIRYRPPRLPRPRPRPKGQPRP
shrunken log2 fold change: 0.0405

RRIRYRPPRLPRPRPRPKHSPRP
shrunken log2 fold change: -0.875

RRIRYRPPRLPRPRPRPKKKPRP
shrunken log2 fold change: -0.104

RRIRYRPPRLPRPRPRPKKPPRP
shrunken log2 fold change: 0.00704

RRIRYRPPRLPRPRPRPKLCPRP
shrunken log2 fold change: -0.0301

RRIRYRPPRLPRPRPRPKLDPRP
shrunken log2 fold change: -0.351

RRIRYRPPRLPRPRPRPKLFPRP
shrunken log2 fold change: -0.0593

RRIRYRPPRLPRPRPRPKLRPRP
shrunken log2 fold change: -0.111

RRIRYRPPRLPRPRPRPKLTPRP
shrunken log2 fold change: -0.173

RRIRYRPPRLPRPRPRPKMHPRP
shrunken log2 fold change: -0.561

RRIRYRPPRLPRPRPRPKMNPRP
shrunken log2 fold change: -0.616

RRIRYRPPRLPRPRPRPKMRPRP
shrunken log2 fold change: 0.198

RRIRYRPPRLPRPRPRPKNMPRP
shrunken log2 fold change: -0.477

RRIRYRPPRLPRPRPRPKNYPRP
shrunken log2 fold change: -1.38

RRIRYRPPRLPRPRPRPKTAPRP
shrunken log2 fold change: -0.0087

RRIRYRPPRLPRPRPRPKTGPRP
shrunken log2 fold change: -0.243

RRIRYRPPRLPRPRPRPKTMPRP
shrunken log2 fold change: -0.614

RRIRYRPPRLPRPRPRPKTRPRP
shrunken log2 fold change: -0.142

RRIRYRPPRLPRPRPRPKVMPRP
shrunken log2 fold change: -0.296

RRIRYRPPRLPRPRPRPKYPPRP
shrunken log2 fold change: -0.0165

RRIRYRPPRLPRPRPRPLAFPRP
shrunken log2 fold change: -0.827

RRIRYRPPRLPRPRPRPLAHPRP
shrunken log2 fold change: -0.15

RRIRYRPPRLPRPRPRPLAIPRP
shrunken log2 fold change: -0.778

RRIRYRPPRLPRPRPRPLCRPRP
shrunken log2 fold change: -0.863

RRIRYRPPRLPRPRPRPLDAPRP
shrunken log2 fold change: -0.0975

RRIRYRPPRLPRPRPRPLDKPRP
shrunken log2 fold change: -0.0449

RRIRYRPPRLPRPRPRPLECPRP
shrunken log2 fold change: -0.183

RRIRYRPPRLPRPRPRPLENPRP
shrunken log2 fold change: -0.0143

RRIRYRPPRLPRPRPRPLEQPRP
shrunken log2 fold change: -0.121

RRIRYRPPRLPRPRPRPLEWPRP
shrunken log2 fold change: 0.00157

RRIRYRPPRLPRPRPRPLFAPRP
shrunken log2 fold change: -0.492

RRIRYRPPRLPRPRPRPLFDPRP
shrunken log2 fold change: 0.802

RRIRYRPPRLPRPRPRPLGCPRP
shrunken log2 fold change: -0.198

RRIRYRPPRLPRPRPRPLGYPRP
shrunken log2 fold change: -0.162

RRIRYRPPRLPRPRPRPLHAPRP
shrunken log2 fold change: 0.000596

RRIRYRPPRLPRPRPRPLHTPRP
shrunken log2 fold change: -0.169

RRIRYRPPRLPRPRPRPLIYPRP
shrunken log2 fold change: -1.24

RRIRYRPPRLPRPRPRPLKVPRP
shrunken log2 fold change: -0.0432

RRIRYRPPRLPRPRPRPLLGPRP
shrunken log2 fold change: -0.25

RRIRYRPPRLPRPRPRPLLPPRP
shrunken log2 fold change: -0.266

RRIRYRPPRLPRPRPRPLLYPRP
shrunken log2 fold change: -0.94

RRIRYRPPRLPRPRPRPLMGPRP
shrunken log2 fold change: -0.0741

RRIRYRPPRLPRPRPRPLMPPRP
shrunken log2 fold change: -0.931

RRIRYRPPRLPRPRPRPLNHPRP
shrunken log2 fold change: -0.796

RRIRYRPPRLPRPRPRPLNMPRP
shrunken log2 fold change: -1.33

RRIRYRPPRLPRPRPRPLRPPRP
shrunken log2 fold change: 0.786

RRIRYRPPRLPRPRPRPLRVPRP
shrunken log2 fold change: -0.0922

RRIRYRPPRLPRPRPRPLSGPRP
shrunken log2 fold change: -0.0308

RRIRYRPPRLPRPRPRPLTEPRP
shrunken log2 fold change: -0.00518

RRIRYRPPRLPRPRPRPLTIPRP
shrunken log2 fold change: -0.0265

RRIRYRPPRLPRPRPRPLTTPRP
shrunken log2 fold change: -0.404

RRIRYRPPRLPRPRPRPLVEPRP
shrunken log2 fold change: -0.234

RRIRYRPPRLPRPRPRPLVSPRP
shrunken log2 fold change: -0.113

RRIRYRPPRLPRPRPRPLWDPRP
shrunken log2 fold change: -0.717

RRIRYRPPRLPRPRPRPLWVPRP
shrunken log2 fold change: -0.0829

RRIRYRPPRLPRPRPRPLWWPRP
shrunken log2 fold change: -0.696

RRIRYRPPRLPRPRPRPMAAPRP
shrunken log2 fold change: -0.115

RRIRYRPPRLPRPRPRPMANPRP
shrunken log2 fold change: -0.223

RRIRYRPPRLPRPRPRPMCFPRP
shrunken log2 fold change: -0.335

RRIRYRPPRLPRPRPRPMCYPRP
shrunken log2 fold change: -0.399

RRIRYRPPRLPRPRPRPMDEPRP
shrunken log2 fold change: -0.115

RRIRYRPPRLPRPRPRPMDLPRP
shrunken log2 fold change: -0.0912

RRIRYRPPRLPRPRPRPMGPPRP
shrunken log2 fold change: -0.121

RRIRYRPPRLPRPRPRPMGWPRP
shrunken log2 fold change: -0.134

RRIRYRPPRLPRPRPRPMHQPRP
shrunken log2 fold change: -0.0734

RRIRYRPPRLPRPRPRPMKNPRP
shrunken log2 fold change: -0.191

RRIRYRPPRLPRPRPRPMLTPRP
shrunken log2 fold change: -0.0378

RRIRYRPPRLPRPRPRPMMAPRP
shrunken log2 fold change: -0.146

RRIRYRPPRLPRPRPRPMWNPRP
shrunken log2 fold change: -0.302

RRIRYRPPRLPRPRPRPMYVPRP
shrunken log2 fold change: -0.0549

RRIRYRPPRLPRPRPRPNCDPRP
shrunken log2 fold change: -0.504

RRIRYRPPRLPRPRPRPNCEPRP
shrunken log2 fold change: -0.144

RRIRYRPPRLPRPRPRPNEKPRP
shrunken log2 fold change: -0.0256

RRIRYRPPRLPRPRPRPNFDPRP
shrunken log2 fold change: -0.565

RRIRYRPPRLPRPRPRPNHIPRP
shrunken log2 fold change: -1.27

RRIRYRPPRLPRPRPRPNHWPRP
shrunken log2 fold change: -0.4

RRIRYRPPRLPRPRPRPNICPRP
shrunken log2 fold change: -0.204

RRIRYRPPRLPRPRPRPNIEPRP
shrunken log2 fold change: -0.801

Source: the supplement of paper PMC9112550, “Optimization of the antimicrobial peptide Bac7 by deep mutational scanning” (BMC Biology, 2022)
